Assays:
Experiment in all cases: PepSpot peptide array
peptide 117 (human) = target: T1, peptide 117 (human)
T1 sequence (peptide, N-terminus acetylated): SFTNKVFTTETSR

peptide 118 (human) = target: T2, peptide 118 (human)
T2 sequence (peptide, N-terminus acetylated): TNKVFTTETSRSI

peptide 7 (human) = target: T3, peptide 7 (human)
T3 sequence (peptide, N-terminus acetylated): LCLGRVPAQSGPL

B1: monoclonal antibody hGP 5C4 (antibody, V domains shown)
VH: EVKLQESGGGLVQPGRSLKLSCTASGFTFSDYFMSWVRQAPTRGLEWVASISSGGASAYWRDSVKGRFTISRDNAKSALYLQMDSLRSEDTATYFCARGELDFDYWGQGVMVAVSS
VL: ADPNSTLLSASVGDRVTLNCTASQNVYKNLAWYQQKLGEAPRLLLYSANSQTGIPSRFSGSGSGPDFTLTISSLQPEDVASYFCQQYYSGNTFGAGTKLELKR
LU (Light Units) (peptide 117 (human)): 472 LU | LU (Light Units) (peptide 118 (human)): 336 LU | LU (Light Units) (peptide 7 (human)): 292 LU
